Paper PMC7641732, “Structural basis of prostate-specific membrane antigen recognition by the A9g RNA aptamer”

Biological target: human PSMA extracellular part (wtPSMA) (human, UniProt Q04609 44-750)
Test: X-ray crystallography 2.2 A; 2-PMPA, active-site Zn2+; IC50: 20 mM Tris, 150 mM NaCl, pH 8.0, 37 C preincubation 10 min; flow cytometry: 10 mM Tris, 150 mM NaCl, pH 7.4, 0.5% fish gelatin (inhibitor preincubation 4)
Details: protein: recombinant; tags: N-terminal Strep-FLAG; chain copies: 2; stem-loop: S1 7 bp, 4x1 internal loop, S2 4 bp, 16-nt hairpin loop

Sequence of human PSMA extracellular part (wtPSMA) (Q04609 44-750): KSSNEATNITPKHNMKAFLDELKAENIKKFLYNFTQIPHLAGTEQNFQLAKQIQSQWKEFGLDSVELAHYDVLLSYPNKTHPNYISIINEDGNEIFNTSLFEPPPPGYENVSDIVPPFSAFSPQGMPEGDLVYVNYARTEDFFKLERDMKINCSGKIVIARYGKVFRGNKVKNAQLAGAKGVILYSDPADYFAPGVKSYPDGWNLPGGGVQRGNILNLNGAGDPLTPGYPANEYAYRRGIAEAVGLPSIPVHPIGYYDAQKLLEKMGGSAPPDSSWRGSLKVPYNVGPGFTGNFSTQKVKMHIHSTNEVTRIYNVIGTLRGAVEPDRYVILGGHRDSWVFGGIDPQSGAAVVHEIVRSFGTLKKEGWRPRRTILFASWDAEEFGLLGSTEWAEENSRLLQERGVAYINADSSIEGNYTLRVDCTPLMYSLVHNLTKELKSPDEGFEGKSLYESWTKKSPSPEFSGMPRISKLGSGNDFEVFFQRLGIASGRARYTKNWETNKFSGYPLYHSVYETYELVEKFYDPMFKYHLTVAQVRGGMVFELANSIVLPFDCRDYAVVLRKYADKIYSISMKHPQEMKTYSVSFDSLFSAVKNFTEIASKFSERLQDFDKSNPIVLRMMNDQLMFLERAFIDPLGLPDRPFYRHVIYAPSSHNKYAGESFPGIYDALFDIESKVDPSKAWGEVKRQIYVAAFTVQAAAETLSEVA

GGGACCGAAAAAGACCUGACUUCUAUACUAAGUCUACGUUCCC (structured_RNA, 2'-deoxy-2'-fluoro on all C and U) [A9g]
binding result: binds
